In the supplement of paper PMC9732359:
± gives the uncertainty stated by the source.

Experiment: protein stability index of a GFP-peptide fusion (yeast GPS) (PSI 1-4); higher = more stable; sorted into four equal gates, so the index is relative within each strain
Procedure, shortened: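 Plasmids in a pooled yeast library fused tiled 17-residue yeast protein peptides downstream of GFP and also expressed Cherry. Mid-log cultures grown without leucine were sorted into four equal gates by GFP/Cherry fluorescence ratio. Each gate's plasmids were PCR-amplified and Illumina-sequenced, and reads were matched to strains by barcodes. The protein stability index is derived by multiplying each gate's read frequency by its gate number and summing the results.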

Row | Sequence | protein stability index (doa10∆) | protein stability index (pdr5∆) | protein stability index (san1∆) | protein stability index (ubr1∆)
1 | QSISQNSSSSTPNTNSN [SWI1] | 2.73 ± 0.055 | 2.8 ± 0.049 | 2.9 ± 0.051 | 2.82 ± 0.048
2 | ISNGNLATGPNLTSEIE [YOR098C/NUP1] | 3.4 ± 0.096 | 3.39 ± 0.11 | 3.17 ± 0.06 | 3.41 ± 0.091
3 | ETLENGETRMKMLNEFV [SMC2] | 2.87 ± 0.12 | 3.06 ± 0.24 | 3.17 ± 0.15 | –
4 | LIEYMENDAKKSKGDVD [NUT1] | 3.05 ± 0.11 | 3.1 ± 0.079 | 3.1 ± 0.08 | 3.03 ± 0.058
5 | NDKQGFPMKQGVLLPTR [RPS6A] | 2.75 ± 0.098 | 3.06 ± 0.14 | 2.79 ± 0.075 | 2.57 ± 0.12
6 | FLIKASVREINLYMLVT [SSN8] | 1.55 ± 0.063 | 1.43 ± 0.047 | 1.89 ± 0.091 | 1.44 ± 0.052
7 | LKNSIMSFIFPSYAERQ [YML031W/NDC1] | 2.51 ± 0.075 | 2.54 ± 0.083 | 2.38 ± 0.079 | 2.4 ± 0.067
8 | SNTSTLKNMLYVLSTAV [BRR2] | 1.57 ± 0.066 | 1.53 ± 0.09 | 1.17 ± 0.18 | 1.38 ± 0.059
9 | ANKLSKSHSTVSSSSRH [ISW2] | 2.9 ± 0.066 | 2.63 ± 0.069 | 2.71 ± 0.056 | 2.93 ± 0.037
10 | GIHILLYSGLIIDEIIT [RPC82] | 1.15 ± 0.094 | 1.41 ± 0.25 | – | 1.21 ± 0.082
11 | MLQMKGKLLRNYTQNID [SIR2] | 2.91 ± 0.076 | 2.36 ± 0.11 | 2.78 ± 0.086 | 2.02 ± 0.058
12 | IYRYDEMSNKVLKVDKR [BRR2] | 2.97 ± 0.042 | 3.09 ± 0.051 | 2.96 ± 0.038 | 2.84 ± 0.047
13 | EDFQVLRLGRGINPNTF [YDL088C/ASM4] | 3.29 ± 0.11 | 3.45 ± 0.19 | 3.06 ± 0.11 | 3.52 ± 0.064
14 | LQKKFVTKQSELNSSED [SMC1] | – | 3.52 ± 0.26 | – | –
15 | VKRIQSVPLVIGQFLEP [RPT3] | 1.58 ± 0.064 | 1.6 ± 0.063 | 2.38 ± 0.11 | 3 ± 0.094
16 | TGLVSIRGKILTGTVVS [RPS11A] | 2.45 ± 0.052 | 2.75 ± 0.053 | 2.58 ± 0.053 | 2.89 ± 0.038
17 | KTAEQVAAERAARKAAN [RPL7A] | 2.94 ± 0.091 | 2.92 ± 0.06 | 2.78 ± 0.062 | 2.56 ± 0.052
18 | QAESMKFKLLNGLAIRR [RPS3] | 1.69 ± 0.069 | 2.3 ± 0.085 | 1.48 ± 0.12 | 2.58 ± 0.1
19 | IAFLVGLVNPKTVQSMT [SWI3] | 2.46 ± 0.068 | 2.02 ± 0.059 | 2.11 ± 0.07 | 2.56 ± 0.041
20 | WSWDIAVDNCAICRNHI [HRT1] | – | – | – | 2.04 ± 0.23
21 | DLTLDDISLKADLERFF [YJL039C/NUP192] | 3.29 ± 0.053 | 3.35 ± 0.076 | 3.41 ± 0.036 | 3.23 ± 0.039
22 | TEISPMAGSQFENGNIT [RRP45] | 2.6 ± 0.063 | 2.5 ± 0.05 | 2.86 ± 0.058 | 2.71 ± 0.062
23 | AHTAGRYANKRFRKAQC [RPS5] | 2.29 ± 0.22 | 2.92 ± 0.18 | – | –
24 | ENVLAIGIAGAHRVRDL [SKI6] | 1.97 ± 0.065 | 2.21 ± 0.059 | 2.1 ± 0.084 | 1.74 ± 0.052
25 | KASSTPAGGLFGQASGA [YGL172W/NUP49] | – | – | 2.19 ± 0.26 | –
26 | DFNMKLAINAKTITSGL [RPB2] | 2.99 ± 0.087 | 3.06 ± 0.086 | 2.76 ± 0.061 | 2.99 ± 0.05
27 | RLAAPHHWLLDKLSGCY [RPS4A] | 2.31 ± 0.23 | 2.2 ± 0.1 | 2.26 ± 0.14 | 2.35 ± 0.15
28 | RIFISNVSENQPWQMDT [SNF12] | 2.98 ± 0.052 | 3.17 ± 0.072 | 3.09 ± 0.04 | 3.11 ± 0.054

Row | Sequence | protein stability index (doa10∆) | protein stability index (pdr5∆) | protein stability index (san1∆) | protein stability index (ubr1∆)
29 | FNEDQLFSLLELGEQKC [RRP46] | 2.37 ± 0.071 | 2.6 ± 0.089 | 2.61 ± 0.071 | 2.36 ± 0.062
30 | DIKANGSIQKGMPHKFY [RPL21A] | 3.01 ± 0.21 | 3.07 ± 0.15 | 3.07 ± 0.28 | 3.64 ± 0.14
31 | CKKNTKKCLKLAYENKI [POP4] | 2.77 ± 0.068 | 2.7 ± 0.076 | 2.87 ± 0.057 | 3.13 ± 0.067
32 | LQVDVDIAGQRDDALVV [RRP42] | 2.07 ± 0.17 | – | – | –
33 | RFAPDNQVTDSSQLNKL [SIR3] | 2.9 ± 0.096 | 3.1 ± 0.11 | 2.98 ± 0.12 | 3.04 ± 0.14
34 | PGGYFIVNGTEKVILVQ [RET1] | 1.63 ± 0.12 | 1.67 ± 0.1 | 1.28 ± 0.13 | 2.48 ± 0.13
35 | SITLQGDVYDPEGTLSG [SMC2] | 2.76 ± 0.16 | 2.6 ± 0.13 | – | 2.28 ± 0.12
36 | IGIMASDGIVLAAERKV [PRE9] | 2.79 ± 0.29 | – | 3.37 ± 0.15 | –
37 | KKLKAVRIIKHTLDIIN [RPS5] | 2 ± 0.066 | 2.01 ± 0.048 | 1.91 ± 0.057 | 2.36 ± 0.051
38 | VIWSEDNDEKLIIRCRV [RPO21] | 3.34 ± 0.15 | 2.96 ± 0.19 | 3.53 ± 0.088 | 2.84 ± 0.19
39 | WIWDMNVHGSLEPFLLM [BRR2] | 1.61 ± 0.06 | 2.08 ± 0.078 | 1.72 ± 0.2 | 1.81 ± 0.077
40 | RKILNFKKDLVIVLSNI [SWI1] | 2.52 ± 0.1 | 2.25 ± 0.07 | 2.11 ± 0.14 | 2.71 ± 0.087
41 | YEILLKILITYGSSPKL [SRB8] | 1.27 ± 0.055 | 1.6 ± 0.053 | 1.35 ± 0.092 | 1.47 ± 0.055
42 | HLVELLLVFRNADLDLD [YDL116W/NUP84] | 3.17 ± 0.12 | 2.46 ± 0.098 | 2.17 ± 0.099 | 2.5 ± 0.13
43 | GALHFVQQSEKLRNEVE [YIL149C/MLP2] | 3.17 ± 0.14 | 3.16 ± 0.22 | – | 3.16 ± 0.12
44 | VAKRRFEYSKYRPLTPS [RRP6] | 3.27 ± 0.066 | 3.28 ± 0.084 | 3.15 ± 0.035 | 2.96 ± 0.049
45 | RRVKQLDDITDSNTTEI [SIR4] | 3.27 ± 0.086 | 3.14 ± 0.072 | 2.83 ± 0.069 | 3 ± 0.065
46 | LKHLEEMGKLRERDITS [RRI2] | 2.76 ± 0.079 | 2.58 ± 0.11 | 2.55 ± 0.15 | 3.16 ± 0.068
47 | KVVLKALFLSKINRPPV [RPL18A] | 2.28 ± 0.12 | 1.53 ± 0.067 | 1.41 ± 0.16 | 1.46 ± 0.083
48 | PVTIWLFEQIGIRIKGK [SME1] | 2.42 ± 0.057 | 2.28 ± 0.053 | 2.35 ± 0.066 | 2.45 ± 0.039
49 | EDIMVHYDNTTRNSLGN [RPO21] | 3.1 ± 0.09 | 3.1 ± 0.095 | 3.35 ± 0.041 | 3.06 ± 0.075
50 | QLLQRIPNIPPNINTWQ [GAL11] | 2.55 ± 0.048 | 2.72 ± 0.049 | 1.96 ± 0.059 | 2.62 ± 0.044
51 | KPNIILDEDDTNDGIER [RPC31] | 3.42 ± 0.076 | 3.27 ± 0.085 | 3.31 ± 0.051 | 3.27 ± 0.043
52 | DPLYDITKVPALEFLNT [REC8] | 2.32 ± 0.069 | 2.72 ± 0.093 | 2.61 ± 0.11 | 2.62 ± 0.083
53 | KAYVRLTADYDALDIAN [RPL25] | 2.94 ± 0.14 | 3.04 ± 0.15 | 3.17 ± 0.094 | 3.52 ± 0.091
54 | TGDVLLIQDLLHRLTPK [RPN1] | 3.12 ± 0.07 | 3.03 ± 0.061 | 3.01 ± 0.062 | 2.8 ± 0.059
55 | EIPETGEYSVKLLKGAT [FAS2] | 3.18 ± 0.12 | 3.46 ± 0.089 | 3.32 ± 0.049 | 3.35 ± 0.078
